# Experiment: yeast display, Sf9 membrane polyspecificity reagent, FACS + sequencing; frameworks hold sequencing errors
# Procedure, shortened: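 A synthetic nanobody library was expressed on Saccharomyces cerevisiae BJ5465 by galactose induction for 36–48 hours. The library was stained for 1 hour at 4 °C with 10% biotinylated, detergent-solubilized Sf9 membrane reagent and enriched with streptavidin microbeads before FACS. Low and high (top ~1%) gates were set on anti-HA fluorescence for expression and streptavidin fluorescence for reagent binding, and each polyreactivity label reflects the gate of origin.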
row,Sequence,polyreactivity (PSR sort gate)
1,QVQLVESGGGLVQAGGTLRLSCAASGRIFTRYAMGWYRQAPGKERELVAAISYGGGVTYYADSVKGRFTISRDNAKNTVYLQMNSLKPEDTAVYYCATDDPLSQINEKGMDYWGQGTQVTVSS,low polyreactivity
2,QVQLVESGGGLVQAGGSLRLSCAASGSIFREYAMGWYRQAPGKERELVAAITKSGGRTYYADSVKGRFTISRDNAKNTVYLQMNSLKPEDTAVYYCAADSRNSRQHTSYNRLNYWGQGTQVTVSS,high polyreactivity
3,QDQLVESGGGLVQAGGSLRLSCAASGLTFDKYVMGWYRQAPGKERELVAAITKGGGSTYYADSVKGRFTISRDNAKNTVYLQMNSLKPEDTAVYYCAVTRPLRYWGQGTQVTVSS,high polyreactivity
4,QVQLVESGGGLVQAGGSLRLSCAASGLTFSRYARGWYRQAPGKERELVAAITGSGGNTYYADSVKGRFTISRDNAKNTVYLQMNSLKPEETAVYYCAARDRGDVTRRKGYYWGQGTQVTVSS,high polyreactivity
5,QVQLVESGGGLFQAGGSLRLSCAASGSTLRDYVMGWYRQAPGKERELVAAISWTGDRTYYADSVKGRFTISRDNAKNTVYLQMNSLKPEDTAVYYCNAVYHVTRQGNLDSWGQGTQVTVSS,low polyreactivity
6,QVQLEESGGGLVQAGGSLRLSCAASGRIFYAYGIGWYRQAPVKERELVAAISSGDSTNYADSVKGRFTISRDNAKNTVYFQMNSLKPEDTAVYYCAKDGSPLQLTDPTHDYEYWGQGTQVTVSS,low polyreactivity
7,QVQLVESGGGLVQAGGSLRLSCAASGSTFYGYAMGWYRQAPGKERELVAAIRRIGGTTYADSVKGRFTISRDNAKNTVYLQMNSLKPVDTAVYYCAAYGFSYRYRYYYWGQGTQVTVSS,high polyreactivity
8,QVQLVESGGGLVQAGGSLRLSCAASGSIFYQYAMGWYRQAPGKERELVAAISQNGGRTYYADSVKGRFTISRDNAKNKVYLQMNRLKPEDTAVYYFAARHAPTRYGYWGQGTEVTVSS,high polyreactivity
9,QVQLVESGGGLVQAGGSLRLSCAASGLIFQHNAMGWYRQAPGKERELVAAISRSAGSTYYADSVKGRFTISRDNAKNTVYLQMNSLKPEDTAVYYCAKRPTPTSKYDTVRYGYWGQGTQVTVSS,low polyreactivity
10,QDQLVESGGGLVQAGGSLRLSCAASGRIFDTYAMGWYRQAPGKERELDAAITRRGGSTYYADSVKGRFTISRDIAKNTVYLQMNSLKPEDTAVYYCAKSLVNRHYDYWGQGTQVTVSS,low polyreactivity
11,QVQLVESGGGLVQAGGSLRLSCAASGNILEYNAMGWYRQAPGKEREMVAAISRGGITNYADSVKGRFTISRDNAKNTVYLQMNCLKPEDTAVYYCATRWIGYTSQWDHFEYDYWGQGTQVTVSS,low polyreactivity
12,QVQLVESGGGLVQAGGSLRLSCAASGFTFWTYAMGWYRPAPGKERELVAAIDSGVSTYYADSVKGRFTISRDNAKNTVYLQMNSLKPEDTAVYYCNAGPSVTSGYDYDYWGQGTQVTVSS,low polyreactivity
13,QVQLVESGGGLVQAGGSLRLSCAASGGTFYHYAMGLYRQAPGKERALGAAIRSGARTNYADSVKGRFTISRDNAKNTVYLQMNSLYPEDTAAYSCAAARVRGYVRSGLDYWGQGTQVTVSS,high polyreactivity
14,QVQLGESGGGLVQSGGSLRLSCAASGRIFDLNAMGWYRPAPGKERELVAAISYSDGSTYYADSVKGRFTISRDNEKNTVYLQMNSLKTEDTAVYYCAADFFDRTYITWYEYWGQGTQVTVSS,high polyreactivity
15,QVQLVESGGGLVQAGGSLRLSCAASGIIFWYYAMGWYRQAPGKERELVAAISQSGGRTYYADSVKGRFTISRDNAKNTVYLQMNSLKPEDTAVYYCAAEPYTGYGYWGQGTQVTVSS,high polyreactivity
16,QVQLVESGGGLVQAGGGLRLSCAASGRIFSRNVMGWYRQAPGKERELVAAISASGGSTYYADSVKGRFTISRDNAKNTVYLQMNSLKPEDTAVYYCAARRYPGRTATYYSWGQGTQVTVSS,high polyreactivity
17,QVQLVESGGGLVQAGGSLRLSCAASRSTSYDYAMGWYRQAPGKERELVAAISGSSSTTYYADSVKGRFTISRDNAKNTVSLQMNSLKPEDTAVYYCNAVTTSGSGYGYWGQGTQVTVSS,low polyreactivity
18,QVQLVESGGGLVQAGGSLRLSCAASGRIFQGYAMGWYRQAPGKERELVASIRTGGTTNYADSVKGRFTISRDNAKNTVYLQMTRLKPEDNAVYYCNSGYYSYYGRYYYWGQGTQVTVSS,high polyreactivity
19,QVQLVESGGGLVQAGGSLRLSCAASGSTFGRNAMGWYRQAPGKERELVAASNWSDGSTHYADSVKGRFTISRDNAKNTVYLQMNSLKPEDTAVYYCAADAWSWPVDYNYWGQGTQVTVSS,low polyreactivity
20,QVQLVESGGGLVQAGGSLRFSCAASGSTFTVYAMGWYRQAPGQERELVAAITNGGRTYYADSVKGRFTISRDNAKNTVYLQMNSLKPEDTAVYYCAADVYYDDYLYDYWGQGTQVTVSS,high polyreactivity
21,QVQLVESGGGLVQAGGSLRLSCAASGRTFGVYVMGWYRHAPGKERELVAFITISGGSTNYADSVKGRFTISRDNAKNTVYLQMNSLKPDDTAVYYCAARTYYGYDYWGQGNQVTVSS,high polyreactivity

row,Sequence,polyreactivity (PSR sort gate)
1,QVQLVESGGGLVQAGGSLRLSCAASGGTFRPNAMGWYRQAPGKERELVAAITRSGGSTYYADSVKGRFTISRDNAKNTVYLQMNSLKPVDTAVYYCARDLREWGQGTQVTVSS,low polyreactivity
2,QVQLVESGGGLVQAGGSLRLSCAASGSISSYAMGWYRQAPGKERELVASITWHGGGTYYADSVKGRFTISRDNAKNTVYLQMNSLKPEDTAVYYCNADYVYSWYEPLKYNYWGQGTQVTVSS,low polyreactivity
3,QVQHVESGGGLVQAGGSLLLSCAASGSITVSYMGWYRQAPGKERELVAAISFSGASTYYADSVKGRFTISRDDAKNTVYLQMNSLKPEDTAVYYCAAEYVIYYWFEWLDLDYWGQGTQVTVSS,high polyreactivity
4,QVQLVESGGGLVQAGGSLRLSCAASGFIFRRYAMGWYRQAPGKERELVAIITSGVRTYYADSVKGRFTISRDNAKNTVYLQMNSLKPEDTAVYYCASRVKDYPEYDYWGQGTQVTVSS,low polyreactivity
5,QVQLEESGGGLVQAGGSLRLSCAASGSTFHINAMGWYRQAPGKEREFVADINWSGGSTYYADSVKVSFTISRDNAKNTVYLQMNSLKPADTAVYYFAADVGVFTYSPYDAGEHDYWGQGTLVTVSS,low polyreactivity
6,QVQLVESGGGLVQAGGSLRLSCAASGSTFGWNAMGWYRQAPGKERELVAAITADDDDTYYADSVKGRFTISRDNAKNTVYLQMNSLKPEDTAVYYCATEKWFWYGDWYDYWGQGTQVTLSS,high polyreactivity
7,QVQLVESGGGLVQAGGSLRLSCAASGSIFWVYTMGWYREAPGKERELVAASRSRGGSTYYADSVKGRFTISRDKAKNTVYLQMNSLKPEDTAVYYGNADYYYEVDSWGQGTQVTVSS,low polyreactivity
8,QVQLVESGGGLVQAGGSLRLSCAASGSTSGIYAMGWSRQAPGKERELVAAIDTSGGSTYADSVKGRFTISRDNAKNTVYLQMNSLKPEATAVYYCARTWGLRYRWSYGRSRYNFWGQGTQVTVSS,low polyreactivity
9,QVQLVESGGGLVQAGGSLRLSCAASGLTLYLYTMGWYRQAPGTERELVASIDSGTSTKYADSVKGRFTISRDNAKNTVYLQMNSLKPEDTAVYYCAAGVWVTRYFGYYYWGQGTQVTVSS,low polyreactivity
10,QVQLVESGGGLVQAGCSLRLSSAASGFIYYRYAMGWYRQAHGKERELVAAISRSGGSTYYADSVKGRFTISRDNAKNTVYVQMNRLKPEDTAVYYCAADSGSLAPGNDYWGQGTQVTVSS,high polyreactivity
11,QVQLVESGGGLVQAGGSLRIICAASGRIFRENAMGWYRQAPGKAREWVAAISSGGSTYYADSVKGRFTISRDNAKNTDYLQMNSLKPEDPAVYYCAADLSWSRVVFGDYDYWGQGTHVTVSS,low polyreactivity
12,QVQLVETGGGLLQAGGSLRISSAASGRIFPSFSMGWYRQAPGKERELVAAITRGGASTYYADSVKGRFTISRDNAKNTVYLQMNSLKPEDTAVYYCAKDAYRYGGLSWTTGMDYWGQGTQVTVSS,high polyreactivity
13,QVQLLESGGGLLQAGGSLRLSCAASGLTFGKYAMGWYRQAPGKERELVAAINSSGGSTYYADSVKGRFTISRDNAKNTVYLQMNSLKPEDSAVYYRAVAVYRLIYFVYNYWGQGTQVTVSS,low polyreactivity
14,QVQLVESGGGLVQAGGSLRLSCAASGSTFVFYAMGWYRQAPGKERELVAAITISGDITYYADSVKGRFTISRDNAKNTVYLQMNSLKPEDTAVYYCAADWHSWRWGYYYWGQGTQVTVSS,low polyreactivity
15,QVQLVETGGGLVQAGGSLRLSCAASGSTFYPTYAMGWYRQAPGKERELVATITGSGGSTYYADSVKGRFTISRDNAKNTVYLKMNSLKPEDTAVYYCAADRWYSRYTRYGYWGQGTQVTVSS,low polyreactivity
16,QVQLVESGGGLVQAGGSLRLSCAASGITFTSYVMGWYRQAPGKERELVAAIRWSGGRTYYADSVKGRFTISRDNAKNTVYLQLNSLKPEDTAVYYCNRVTRSHVDYWGQGTQVTVSS,high polyreactivity
17,QVQLVESGGGLVQAGGSLRLSCAASGLTFTYYAMGWYRQAPGKERELVAVISRRGGSTYYADSVKGRFTISRDNAKNTVYLQMNSLKPEDTAVYYCAATNLQSAYDYWGHGTQVTVSS,high polyreactivity
18,QVQLVESGGGLGQAGGSLRLSCAASGFIFGPYAMGWYRQARGKETELVAAISSSGGSTSYADSVKGRFTISRDNAKNTVYLQMNSLKPEDTAVYYCAARGRYRFYSNNYDYWGQGTQVTVSS,high polyreactivity
19,QVQLVESGGGLVQAGGSLRLSCAASGRIFRYYAMGWYRQAPGKERELVAAITWSGGSTYYADSVKGRFTISRDNAKNTVYLQMNSLKPEDTAVYYCNAKSYQPFHGDYWGQGTQVTVSS,low polyreactivity
20,QVQLVQSGGGLVQAGGSLRLSCAASGRIFRPNAMGWYRQAPGKERELVAAISSGGSTYYADSVKGRFTISRDNAKNTVYFQMYSLKPEDTAVDYCAADRSNRPYYRQGYDYWGQGTQVTVSS,high polyreactivity

# Source: the nanobody polyreactivity screen of Harvey et al. (2022)
